The values below are quoted from earlier work in publication PMC3674867.

pKd: −log10 of the molar value.

This data set concerns the target caspase-3 (Homo sapiens) (UniProt P42574). The data set can be described thus: solid phase binding assay.
UniProt P42574, sequence (P42574 176-277): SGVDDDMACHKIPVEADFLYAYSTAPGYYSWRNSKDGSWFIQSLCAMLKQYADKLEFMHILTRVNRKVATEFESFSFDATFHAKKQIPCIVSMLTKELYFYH

Turning to PAI-1 (from UniProt P05121), the pKd is 8.52.

The pKd is −log10 of the Kd, conventionally taken in molar units.
